# Measurements taken from paper PMC7530888.
# Target: GST-tagged MtbXthA (M. tuberculosis class II AP-endonuclease/3'-5' exonuclease XthA) (M. tuberculosis) (UniProt P96273)
# Test: SPR
substance,measurement,value
"BRCT domain of MtbLigA, His-tagged (from UniProt P9WNV1 1-691) (domain or fragment)",Kd,0.0677 µM
